# In IntAct's records for PubMed 22398447:
# B1: Origin recognition complex subunit 1 (Homo sapiens), Q13415 (parent)
# chain: MAHYPTRLKTRKTYSWVGRPLLDRKLHYQTYREMCVKTEGCSTEIHIQIGQFVLIEGDDDENPYVAKLLELFEDDSDPPPKKRARVQWFVRFCEVPACKRHLLGRKPGAQEIFWYDYPACDSNINAETIIGLVRVIPLAPKDVVPTNLKNEKTLFVKLSWNEKKFRPLSSELFAELNKPQESAAKCQKPVRAKSKSAESPSWTPAEHVAKRIESRHSASKSRQTPTHPLTPRARKRLELGNLGNPQMSQQTSCASLDSPGRIKRKVAFSEITSPSKRSQPDKLQTLSPALKAPEKTRETGLSYTEDDKKASPEHRIILRTRIAASKTIDIREERTLTPISGGQRSSVVPSVILKPENIKKRDAKEAKAQNEATSTPHRIRRKSSVLTMNRIRQQLRFLGNSKSDQEEKEILPAAEISDSSSDEEEASTPPLPRRAPRTVSRNLRSSLKSSLHTLTKVPKKSLKPRTPRCAAPQIRSRSLAAQEPASVLEEARLRLHVSAVPESLPCREQEFQDIYNFVESKLLDHTGGCMYISGVPGTGKTATVHEVIRCLQQAAQANDVPPFQYIEVNGMKLTEPHQVYVQILQKLTGQKATANHAAELLAKQFCTRGSPQETTVLLVDELDLLWTHKQDIMYNLFDWPTHKEARLVVLAIANTMDLPERIMMNRVSSRLGLTRMCFQPYTYSQLQQILRSRLKHLKAFEDDAIQLVARKVAALSGDARRCLDICRRATEICEFSQQKPDSPGLVTIAHSMEAVDEMFSSSYITAIKNSSVLEQSFLRAILAEFRRSGLEEATFQQIYSQHVALCRMEGLPYPTMSETMAVCSHLGSCRLLLVEPSRNDLLLRVRLNVSQDDVLYALKDE
# Variants of: B1
# Conditions: with h4_bovin h4, P62803
row,effect of a mutation on the interaction,Variant
1,disrupting interaction strength,W88A
2,disrupting interaction strength,E94A
3,disrupting interaction strength,Y64A
